The target of this assay is spoke HSP40 (His-tagged recombinant HSP40) (Chlamydomonas reinhardtii). Put plainly: AUC.

Consider “spoke HSP40 (His-tagged recombinant HSP40) (natural protein)”, for which the stoichiometry N (commonly the number of molecules, sites or subunits per partner or assembly) came to 2.
